The results in this text go back to IntAct's records for PubMed 12620189.

First the molecules themselves.
B1: SCOCO-like protein 1 (Saccharomyces cerevisiae), Q3E784 (parent)
chain: MSAENISTGSPTGKQPSSEVNLGEREAGTKNERMMRQTKLLKDTLDLLWNKTLEQQEVCEQLKQENDYLEDYIGNLMRSSNVLEK
partner: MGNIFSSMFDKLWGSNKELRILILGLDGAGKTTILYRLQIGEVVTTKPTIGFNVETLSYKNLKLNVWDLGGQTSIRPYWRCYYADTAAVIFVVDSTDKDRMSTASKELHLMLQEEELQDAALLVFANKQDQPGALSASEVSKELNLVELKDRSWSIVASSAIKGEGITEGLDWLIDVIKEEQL

The variants in this experiment derive from B1. As to conditions: with arl1_yeast ARL1, P38116.
On to MSAENISTGSPTGKQPSSEVNLGEREAGTKNERMMRQTKLLKDTLDLLWNKTLEQQEVCEQLKQENDYLEDAIGNLMRSSNVLEK [Y72A], for which the “effect of a mutation on the interaction” value is given as “disrupting interaction”.
